# According to US20140199242A1:
# Molecular target: MUC4 protein (endogenous human MUC4 of pancreatic cancer cells and tumor tissue) (human) (UniProt Q99102)
# Test: flow cytometry, cell-surface staining of paraformaldehyde-fixed unpermeabilized cells (cell line not given), 1 µg antibody/10^6 cells, FITC anti-mouse secondary
substance,measurement,value
anti-MUC4 TR MAb 8G7 (antibody),MFI (mean fluorescence intensity),23.1
anti-KLH antibody K2G6,MFI (mean fluorescence intensity),14.2
